Measured values as given in patent EP4428145A1, “ANTIBACTERIAL PEPTIDE” (Sumitomo Chemical Company, Limited, priority 2021, dated 2024).
Primed or numbered codes have the meaning given here. Where no end group is shown, it is not given here. [ ]: non-standard residue; d: D form. Dhb′ = not defined here; Dha = C=C(N)C(=O)O

Columns and labels:
Format in all cases: cell-based, Lactobacillus sakei
L. sakei [1] = assay: Oxidation stability test, antimicrobial activity after hydrogen peroxide treatment, spot-on-lawn (Experiment 8); design: key to Antimicrobial activity, Before oxidation treatment / Antimicrobial activity, After oxidation treatment: -: Without antimicrobial activity; +: With antimicrobial activity; ++: With strong antimicrobial activity; +++: With very strong antimicrobial activity; settings: for Antimicrobial activity, After oxidation treatment: 1-mM solution treated with 10 mM hydrogen peroxide at 40°C for 6 hours
Method: (§1) Like in Experiment 1A, antimicrobial activity of the antimicrobial peptide was evaluated by a spot-on-lawn method. As the test bacteria, Lactobacillus sakei (NBRC15893) was used. After overnight culturing, the test bacteria were mixed and diluted with Lactobacilli AOAC agar so as to achieve a density of 4×10^7 CFU/mL, and the resultant was spread over an MRS plate containing 2% agar. The test liquid was spotted on the test bacteria, and incubated overnight at 30°C. The size of the growth inhibition circle of L. sakei was evaluated as the antimicrobial activity.
(§2) Nisin A used in Examples was Nisin from Lactococcus lactis 2.5% (manufactured by Sigma-Aldrich corporation) that was used after concentration and purification. The details of nisin A are as described by J. C. Slootweg et al., J. Pept. Sci., 19, 692-699(2013). To 1 g of commercially available 2.5% nisin A (containing about 25 mg of nisin A), 25 mL of water was added, and the resultant was stirred for 15 minutes at room temperature. Centrifugation (15 minutes, 2500 rpm) was carried out to separate off the precipitate, and only the supernatant was transferred to another tube. To the resulting solution, 20 mL of dichloromethane was added. To collect the white precipitate that was present between the aqueous layer and the organic layer, the upper layer and the lower layer were removed. Another round of centrifugation (15 minutes, 2500 rpm) was carried out to remove, again, the upper layer and the lower layer. The intermediate layer that was sought after was dried in a reduced-pressure centrifuge and re-dissolved in 7.45 mL of water, and thereby a 1-mM purified Nisin product was obtained. The resulting purified product was used as nisin A in each stability test.
The method of oxidation treatment is as described by Toshihiro T. et al., J. Proteome Res., 12, 753-762(2013). To a 1-mM solution of lactobacin A or nisin A, hydrogen peroxide was added to achieve a final concentration of 10 mM, followed by reaction at 40°C for 6 hours. After the completion of reaction, the reaction liquid was diluted with water to achieve a polypeptide concentration of 10 µM or 1 µM. By the same spot-on-lawn method as adopted in the above-mentioned antimicrobial activity test, the polypeptide was added in drops to form a growth inhibition circle of L. sakei, and thereby the antimicrobial activity of the polypeptide after oxidation treatment was evaluated. Development of the oxidation reaction was calculated as a relative value of the peak area obtained by LC/MS measurement of the oxidation-treated test solution relative to the non- oxidation-treated test solution. As a positive control (PC), culture supernatant of a nisin A-producing lactic acid bacterium (Lactococcus lactis ATCC-11454 strain) was used.

L. sakei [2] = assay: Thermal stability test, antimicrobial activity after heat treatment, spot-on-lawn (Experiment 7); design: key to Antimicrobial activity after heat treatment / Antimicrobial activity, Untreated: -: Without antimicrobial activity; +: With antimicrobial activity; ++: With strong antimicrobial activity; +++: With very strong antimicrobial activity; settings: for thermal stability of antimicrobial activity: result in words
Method: as §1, §2
The test solution was subjected to heat treatment at 80°C for 10 minutes, or at 80°C for 30 minutes, or at 100°C for 10 minutes, or at 100°C for 30 minutes, or at 121°C for 15 minutes. By the same spot-on-lawn method as adopted in the above-mentioned antimicrobial activity test, the polypeptide was added in drops to form a growth inhibition circle of L. sakei, and thereby the antimicrobial activity of the polypeptide after heat treatment was evaluated. As a positive control (PC), culture supernatant of a nisin A-producing lactic acid bacterium (Lactococcus lactis ATCC-1 1454 strain) was used. A sample without the heat process was used as an untreated control.

L. sakei [3] = assay: Wide pH-range stability test, antimicrobial activity after pH treatment, spot-on-lawn (Experiment 6); design: key to Antimicrobial activity after pH treatment / Antimicrobial activity, Untreated: -: Without antimicrobial activity; +: With antimicrobial activity; ++: With strong antimicrobial activity; +++: With very strong antimicrobial activity; settings: for Antimicrobial activity after pH treatment: 30°C
Method: as §1
Each peptide was redissolved and prepared in the following buffer; Sodium acetate-acetic acid (50 mM, pH4.0), Sodium phosphate (50 mM, pH7.4), glycine-NaOH (50 mM, pH10.0). The test solution thus prepared at the above-specified pH was incubated at 30°C. The duration of the incubation was 0 hours, 0.5 hours, 2 hours, 4 hours, 6 hours, and 24 hours, and at the completion of the incubation, TFA was added in a final concentration of 0.2%. […] By the same spot-on-lawn method as adopted in the above-mentioned antimicrobial activity test, the polypeptide was added in drops to form a growth inhibition circle of L. sakei, and thereby the antimicrobial activity of the polypeptide after pH treatment was evaluated. As a positive control (PC), culture supernatant of a nisin A-producing lactic acid bacterium (Lactococcus lactis ATCC-11454 strain) was used. A sample that was prepared solely with a 0.2% TFA aqueous solution was used as an untreated control.
as §2

Substance: nisin A (I[Dhb′]SI[Dha]LCTPGCKTGALMGCNMKTATCHCSIHV[Dha]K; thioether (positions not given here); not fully specified (some residues, bridges); also: lanthionine thioether crosslinks and dehydro residues, not placed; UniProt P13068 24-57, looked up) [Nisin from Lactococcus lactis 2.5% (Sigma-Aldrich) used after concentration and purification; known antimicrobial peptide]
- Antimicrobial activity, Before oxidation treatment (L. sakei [1]; 1 µM): +
- Antimicrobial activity, Before oxidation treatment (L. sakei [1]; 10 µM): ++
- Antimicrobial activity, After oxidation treatment (L. sakei [1]; diluted to 1 µM): -
- Antimicrobial activity, After oxidation treatment (L. sakei [1]; diluted to 10 µM): -
- oxidation stability of antimicrobial activity (L. sakei [1]; result in words, after oxidation treatment with 10-mM hydrogen peroxide): lost its antimicrobial activity
- Antimicrobial activity after heat treatment (L. sakei [2]; 10 µM, 80°C 10 mm): +
- Antimicrobial activity after heat treatment (L. sakei [2]; 10 µM, 80°C 30 min): -
- Antimicrobial activity after heat treatment (L. sakei [2]; 10 µM, 100°C 10 min): -
- Antimicrobial activity after heat treatment (L. sakei [2]; 10 µM, 100°C 30 min): -
- Antimicrobial activity after heat treatment (L. sakei [2]; 10 µM, 121°C 15 min): -
- Antimicrobial activity, Untreated (L. sakei [2]; 10 µM, sample without the heat process): ++
- thermal stability of antimicrobial activity (L. sakei [2]; any heat treatment beyond 80°C for 10 minutes): lost its antimicrobial activity
- thermal stability of antimicrobial activity (L. sakei [2]; heat treatment at 80°C for 10 minutes): retained its activity
- Antimicrobial activity after pH treatment (L. sakei [3]; 10 µM, pH 4.0, 0 hr): ++
- Antimicrobial activity after pH treatment (L. sakei [3]; 10 µM, pH 4.0, 0.5 hr): ++
- Antimicrobial activity after pH treatment (L. sakei [3]; 10 µM, pH 4.0, 2 hr): ++
- Antimicrobial activity after pH treatment (L. sakei [3]; 10 µM, pH 4.0, 4 hr): +
- Antimicrobial activity after pH treatment (L. sakei [3]; 10 µM, pH 4.0, 6 hr): +
- Antimicrobial activity after pH treatment (L. sakei [3]; 10 µM, pH 4.0, 24 hr): +
- Antimicrobial activity after pH treatment (L. sakei [3]; 10 µM, pH 7.4, 0 hr): -
- Antimicrobial activity after pH treatment (L. sakei [3]; 10 µM, pH 7.4, 0.5 hr): -
- Antimicrobial activity after pH treatment (L. sakei [3]; 10 µM, pH 7.4, 2 hr): -
- Antimicrobial activity after pH treatment (L. sakei [3]; 10 µM, pH 7.4, 4 hr): -
- Antimicrobial activity after pH treatment (L. sakei [3]; 10 µM, pH 7.4, 6 hr): -
- Antimicrobial activity after pH treatment (L. sakei [3]; 10 µM, pH 7.4, 24 hr): -
- Antimicrobial activity after pH treatment (L. sakei [3]; 10 µM, pH 10.0, 0 hr): -
- Antimicrobial activity after pH treatment (L. sakei [3]; 10 µM, pH 10.0, 0.5 hr): +
- Antimicrobial activity after pH treatment (L. sakei [3]; 10 µM, pH 10.0, 2 hr): -
- Antimicrobial activity after pH treatment (L. sakei [3]; 10 µM, pH 10.0, 4 hr): -
- Antimicrobial activity after pH treatment (L. sakei [3]; 10 µM, pH 10.0, 6 hr): -
- Antimicrobial activity after pH treatment (L. sakei [3]; 10 µM, pH 10.0, 24 hr): -
- Antimicrobial activity, Untreated (L. sakei [3]; 10 µM, untreated control prepared solely with 0.2% TFA aqueous solution): ++
- pH stability of antimicrobial activity (L. sakei [3]; result in words, neutral range and alkaline range): lost its antimicrobial activity
